Reference: patent US8546337B2, “Self-assembling peptide nanoparticles useful as vaccines” (Alpha-O-Peptides AG, priority 2008, dated 2013)

What was measured:
[1] = test system: DR1, DR2, DR4, DR5, DRw6, DR7 and DR9 molecules; settings: cited from earlier work
[2] = analytical ultracentrifugation of SAPN; assay type: physicochemical; settings: for MW / No. of monomers: SAPN
Description: Three conditions were tested for assembling nanoparticles from the monomeric building block SEQ ID NO:33. The molecular weight (MW) of the SAPN was assessed by analytical ultracentrifugation: The peptide was dissolved at 0.42 mg/ml, 0.34 mg/ml, and 0.21 mg/ml, in 150 mM NaCl, 20 mM Tris, pH 7.5. The measured MW corresponds to SAPN composed of about 330 monomers, i.e. a nanoparticle with more monomers than needed for a regular polyhedron with 60 asymmetric units (Table 23).

[3] = assay type: physicochemical; settings: DLS at pH 6.5
[4] = peptide 0.21 mg/ml in 150 mM NaCl, 20 mM Tris, pH 7.5
[5] = peptide 0.34 mg/ml in 150 mM NaCl, 20 mM Tris, pH 7.5
[6] = peptide 0.42 mg/ml in 150 mM NaCl, 20 mM Tris, pH 7.5

For “CS.T3 peptide: 17 C-terminal amino acids of P. falciparum circum sporozoite protein CS with two cysteines replaced by alanines (RLLLRLEELERRLEELEKKIAKMEKASSVFNVVLAALRRRLEELAR; trimeric coiled coil with P. falciparum HTL epitope)”, the “pan DR activity in cell proliferation assay” value [1] is listed as “stimulatory”.

B1: MGHHHHHHGDWKWDGGLVPRGSDEMLRELQETNAALQDVRELLRQQVKQITFLRALLMGGRLLARLEELERRLEELERRLEELERAINTVDLELAALRRRLEELAR (protein)
chain: MGHHHHHHGDWKWDGGLVPRGSDEMLRELQETNAALQDVRELLRQQVKQITFLRALLMGGRLLARLEELERRLEELERRLEELERAINTVDLELAALRRRLEELAR
modifications: building block comprising His-tag, COMP and P5c6
With B1 the “molecular weight of the SAPN” value ([2]; analytical ultracentrifugation) was “about 4 MD” and the “number of monomers (peptide chains) per SAPN” value ([2]; from measured MW, 150 mM NaCl, 20 mM Tris, pH 7.5) was “about 330”.

B2: SEQ ID NO: 33 (protein)
chain: B1 chain
modifications: building block comprising His-tag, COMP and P5c6
B2 gave an MW [2, 4] of 4066 kDa, a No. of monomers [2, 4] of 323 and an MW [2, 5] of 4128 kDa. The No. of monomers [2, 5] was 328, the MW [2, 6] was 4331 kDa and the No. of monomers [2, 6] was 344.

B3: MGHHHHHHASWKWDGGLVPRGSWQTWNAKWDQWSNDWNAWRSDWQAWKDDWAFWRALWMGGRLLLRLEELERRLEELEKKIAKMEKASSVFNVVLAALRRRLEELARGGSGANANPNANPNANPNANP (protein)
chain: MGHHHHHHASWKWDGGLVPRGSWQTWNAKWDQWSNDWNAWRSDWQAWKDDWAFWRALWMGGRLLLRLEELERRLEELEKKIAKMEKASSVFNVVLAALRRRLEELARGGSGANANPNANPNANPNANP
modifications: pentameric coiled coil with tryptophane zipper and trimeric coiled coil with P. falciparum HTL epitope
B3 showed a particle diameter [3] of 44.6 nm and a polydispersity index [3] of 19.6%.
